Laboratory results as given in patent US7026282B1, “Peptide antagonists of the human urokinase receptor and method for selecting them” (Cancerforskningsfonden AF 1989 (Fonden Til Fremme AF …, priority 1998, dated 2006).
Entries after “also recorded” stand apart in the source; their conditions may differ. Starred links: 1 amine or outer side, 2 acyl side, 3 side chain; linkers in the order of their positions; H or OH if unused. Non-standard residues stand in square brackets, D forms with d. No end group written: not given here. DMB = N-(2,3-dimethoxybenzyl)glycine, COc1cccc(CN(CC(=O)[*:2])[*:1])c1OC; Gly(N(CH2)2(3-indolyl)) = O=C(O)CNCCc1c[nH]c2ccccc12; 1Nal = N[C@@H](Cc1cccc2ccccc12)C(=O)O; 2Nal = N[C@@H](Cc1ccc2ccccc2c1)C(=O)O; AMN = N-(methylnaphthalyl)glycine; Cha = N[C@@H](CC1CCCCC1)C(=O)O; Nme = COCCNCC(=O)O; βAla = NCCC(=O)O

Key:
[1] = molecular target: soluble recombinant variant of human uPAR (suPAR) (human) (UniProt Q03405); experiment: SPR (Biacore), ligand over immobilised neuramimidase-treated human suPAR
[2] = molecular target: T1, neuramimidase-treated human suPAR (soluble recombinant uPAR) (Homo sapiens, UniProt Q03405); experiment: Biacore Binding Assay (surface plasmon resonance), ligand binding to immobilised suPAR; settings: for kdiss (dissociation rate constant, off-rate): Biacore, 5° C., immobilised suPAR; for Relative kdiss: relative to the Growth Factor Domain of uPA (GFD = 1.0); for dissociation constant compared with other peptides: peptomer analogues; for human uPAR binding after introduction of spacing residues: spacer between D-arginine and L-tyrosine
T1 construct: A soluble recombinant variant of human uPAR (suPAR) was expressed in Chinese hamster ovary (dhfr) cells; made in house; host or cells: Chinese hamster ovary (dhfr) cells
Experimental: Association rate constants (kass), dissociation rate constants (kdiss) and equilibrium binding constants (kd) for various synthetic peptides and receptor binding derivatives of human uPA were determined by surface plasmon resonance (R. Karlsson et al. (1991) J. Immunol. Meths. 145:229–240) using a BIAcore2000™ instrument (Pharmacia Biosensor, Uppsala, Sweden). Due to the low isoelectric point of uPAR (pI≈4.5) terminal sialic acid residues were removed from its N-linked carbohydrates to facilitate chemical immobilisation on the sensor chip. This was accomplished by incubating purified suPAR (1 mg/ml in 50 mM phosphate, 150 mM NaCl, pH 7.4) with 5 μg/ml neuramimidase for 4 hours at 37° C. […] Coupling of the neuramimidase-treated suPAR to a BIAcore sensor chip was achieved by injection of 20 μg/ml suPAR in 10 mM sodium acetate pH 5.0 for 6 minutes at a flow rate of […] per minute using a carboxymethylated dextran matrix (CM5 sensor chip) preactivated with N-hydroxysuccinimide/N-ethyl-N′-[3-([…])propyl]carbodiimide according to the manufacturer's recommendations. Approximately 1,500–2,000 resonance units (RU) were immobilised by this procedure (corresponding to 1–2 ng suPAR/mrn^2).
Sensorgrams (RU versus time) were recorded (FIG. 2) at a flow rate of 10 μl per min at 5° C. using several different concentrations of the ligand (synthetic peptides, uPA, the amino-terminal fragment (ATF) of uPA, or the growth factor domain (GFD) of uPA) in the range of 10 to 1000 nM in running buffer (10 mM HEPES, 150 mM NaCl, 3 mM EDTA (pH 7.4) including 0.005% surfactant P-20). Stock solutions of peptides from combinatorial chemistry were made in DMSO (10 mg peptide/ml DMSO). The sensor chip was regenerated at the end of each run by injection of 0.1 M acetic acid, 0.5 M NaCl. Data obtained from parallel mock coupled flow cells (subjected to the coupling procedure in the presence of buffer only) served as blank sensorgrams for subtraction of changes in bulk refractive index. The sensorgrams obtained were analysed by non-linear least squares fitting using BIAevaluation 2.0 software (Pharmacia Biosensor, Uppsala, Sweden) assuming single-site association and dissociation models.
Purified human suPAR (1 mg/ml in 50 mM phosphate, 150 mM NaCl, pH 7.4) was incubated with 5 μg/ml neuramimidase for 4 hours at 37° C.
In order to couple the neuramimidase-treated suPAR to a BIAcore sensor chip, 20 μg/ml suPAR in 10 mM sodium acetate (pH 5.0) was injected for 6 minutes at a flow rate of 5 μl per minute using a carboxymethylated dextran matrix (CM5 sensor chip), thereby immobilising approximately 1,500–2,000 resonance units (RU), which correspond to 1–2 ng suPAR/mm^2. The CM5 sensor chip was preactivated with N-hydroxysuccinimide/N-ethyl-N′-[3-([…])propyl]carbodiimide in accordance with the manufacturer's recommendations.
Surface plasmon resonance sensorgrams (RU versus time) were recorded at a flow rate of 10 μl per min at 5° C. using several different concentrations of the ligand (i.e. the relevant peptide or GFD) in the range from 10 to 1000 nM in running buffer (10 mM HEPES, 150 mM NaCl, 3 mM EDTA (pH 7.4) including 0.005% surfactant P-20).
The sensor chip was regenerated at the end of each run by injection of 0.1 M acetic acid, 0.5 M NaCl.
Data from parallel mock coupled flow cells (subjected to the coupling procedure in the presence of buffer only) served as blank sensorgrams for subtraction of changes in bulk refractive index.
The obtained sensorgrams were analysed by non-linear least squares fitting using BIAevaluation 2.0 software (Pharmacia Biosensor, Uppsala, Sweden) assuming single-site ssociation and dissociation models.

T1 sequence (Q03405 23-305 limits assumed): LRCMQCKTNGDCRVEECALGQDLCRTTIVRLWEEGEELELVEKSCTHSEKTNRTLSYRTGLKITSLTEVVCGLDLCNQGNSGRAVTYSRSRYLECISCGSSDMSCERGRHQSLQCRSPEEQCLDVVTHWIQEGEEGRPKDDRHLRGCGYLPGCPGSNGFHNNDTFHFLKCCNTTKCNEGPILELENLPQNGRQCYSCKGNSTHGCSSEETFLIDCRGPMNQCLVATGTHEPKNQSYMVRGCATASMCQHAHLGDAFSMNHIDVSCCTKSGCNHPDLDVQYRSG
soluble recombinant variant of human uPAR (suPAR) (human), sequence (Q03405 23-299, change not shown): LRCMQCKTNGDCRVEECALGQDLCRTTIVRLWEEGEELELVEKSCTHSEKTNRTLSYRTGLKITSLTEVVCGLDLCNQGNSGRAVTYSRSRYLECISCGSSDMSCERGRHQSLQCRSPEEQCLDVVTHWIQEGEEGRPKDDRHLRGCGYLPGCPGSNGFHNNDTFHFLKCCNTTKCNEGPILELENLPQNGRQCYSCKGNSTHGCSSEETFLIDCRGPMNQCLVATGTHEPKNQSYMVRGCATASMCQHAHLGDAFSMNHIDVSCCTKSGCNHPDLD

Molecule | Relative kdiss (relative to GFD) [1] | koff [1] [s⁻¹] | kdiss (dissociation rate constant, off-rate) [2] | Relative kdiss [2] | human uPAR binding after introduction of spacing residues [2] | dissociation constant compared with other peptides [2]
AE100 (peptide) | 4 | 0.00056 | – | – | – | –
ATF: amino-terminal-fragment (ATF) of human uPA | – | – | 0.00012 s⁻¹ | 0.86 | – | –
SLChaFsQYLWS (SL[Cha]F[dS]QYLWS) | – | – | 0.00349 s⁻¹ | 24.9 | – | –
SLNFSQYLWS (AE68) [reference compound] | – | – | 0.0129 s⁻¹ | 92.1 | – | –
amino-terminal-fragment (ATF) of human uPA (from UniProt P00749 21-155) (ligand) | 0.86 | 0.00012 | – | – | – | –
dChaFsrYLWs (DXFSRYLWS; not fully specified; D-residues; non-natural residues; cyclised or stapled) | – | – | 0.00068 s⁻¹ | 4.9 | – | –
SL[Cha]F[dS]QYLWS [Lcha] | 24.9 | 0.00349 | – | – | – | –
DXFSRYLWS (D-Asp at 1; beta-cyclohexyl-L-alanine (Cha) at 2; D-Arg at 5) [AE107] | 63.1 | 0.00884 | – | – | – | –
LNF[dS]QYLWS [AE111] | 7.5 | 0.00105 | – | – | – | –
DXFSRYLWS (beta-cyclohexyl-L-alanine (Cha) at 2; D-Ser at 4) [AE110] | 2 | 0.00028 | – | – | – | –
D[Cha]F[dS][dR]GYLWS (not fully specified) [AE116] | > 100 | – | – | – | – | –
D[Cha]F[dS][dR]YL[1Nal]S [AE114] | 4.2 | 0.00059 | – | – | – | –
D[Cha]F[dS][dR][βAla]YLWS (not fully specified; printed as DChaFsrβAYLWS) [AE117] | > 100 | – | – | – | – | –
[dE][Cha]F[dS]YYLWS [AE115] | 11.9 | 0.00167 | – | – | – | –
SLNFSQYLWS [AE68] | 92.1 | 0.0129 | – | – | – | –
DXFSRYLWS (beta-cyclohexyl-L-alanine (Cha) at 2; D-Arg at 5) [AE106] | 18.7 | 0.00263 | – | – | – | –

More lines, main results first:

Relative kdiss (relative to GFD) [1] | koff [1] [s⁻¹] | kdiss (dissociation rate constant, off-rate) [2] | Relative kdiss [2] | human uPAR binding after introduction of spacing residues [2] | Molecule | dissociation constant compared with other peptides [2]
– | – | 0.00053 s⁻¹ | 3.8 | – | D-Cha-F-s-r-Cha-L-W-l (D[Cha]F[dS][dR][Cha]LW[dL]) [AE132] | –
– | – | 0.00037 s⁻¹ | 2.6 | – | D-Cha-F-s-r-DMB-f-AMN-MEA (D[Cha]F[dS][dR][DMB][dF][AMN][Nme]) [AE126, peptide-peptoid hybrid (peptomer)] | same order of magnitude as the best of the peptides; also recorded: approximating those of AE105 and AE110
– | – | 0.00054 s⁻¹ | 3.9 | – | D-Cha-F-s-r-DMB-f-DMB-l (D[Cha]F[dS][dR][DMB][dF][DMB][dL]) [AE129, peptide-peptoid hybrid (peptomer)] | –
– | – | 0.00561 s⁻¹ | 40.0 | – | D-Cha-F-s-r-DMB-f-TRA-MEA (D[Cha]F[dS][dR][DMB][dF][Gly(N(CH2)2(3-indolyl))][Nme]) [AE124, peptide-peptoid hybrid (peptomer)] | same order of magnitude as the best of the peptides
– | – | 0.00074 s⁻¹ | 5.3 | – | D-Cha-F-s-r-DMLB-f-Bzl-MEA [AE125, peptide-peptoid hybrid (peptomer)] | same order of magnitude as the best of the peptides
– | – | 0.00051 s⁻¹ | 3.6 | – | D-Cha-F-s-r-L-L-W-h (D[Cha]F[dS][dR]LLW[dH]) [AE130] | –
– | – | no binding | >>100 | – | D-Cha-F-s-r-MEA-DMB-f-AMN (D[Cha]F[dS][dR][Nme][DMB][dF][AMN]) [AE128, peptide-peptoid hybrid (peptomer)] | same order of magnitude as the best of the peptides
– | – | 0.00056 s⁻¹ | 4.0 | – | D-Cha-F-s-r-Y-L-Nal-h (D[Cha]F[dS][dR]YLX[dH]; not fully specified (residue 8); printed as D-Cha-F-s-r-Y-L-Nal-h) [AE131] | –
– | – | 0.00263 s⁻¹ | 18.7 | – | DChaFSrYLWS (DXFSRYLWS; D-residues; non-natural residues; cyclised or stapled) [AE106] | –
– | – | 0.00028 s⁻¹ | 2.0 | – | DChaFsRYLWS (DXFSRYLWS; D-residues; non-natural residues; cyclised or stapled) [AE110] | –
– | – | no binding | >>100 | abolished the binding | DChaFsrGYLWS (D[Cha]F[dS][dR]GYLWS) [AE116] | –
– | – | no binding | >>100 | abolished the binding | DChaFsrβAYLWS (D[Cha]F[dS][dR][βAla]YLWS) [AE117] | –
– | – | 0.00181 s⁻¹ | 12.9 | – | DFFsrYLWS (DFF[dS][dR]YLWS) [AE112] | –
– | – | no binding | >>100 | – | DNFsrYLWS (DNF[dS][dR]YLWS) [AE113] | –
– | – | 0.00059 s⁻¹ | 4.2 | – | DchaFsrYL^1nAS [AE114] | –
– | – | 0.00105 s⁻¹ | 7.5 | – | LNFsQYLWS (LNF[dS]QYLWS) [AE111] | –
– | – | no binding | >>100 | – | arFhhYLWS ([dA][dR]F[dH][dH]YLWS) [AE104] | –
– | – | 0.00884 s⁻¹ | 63.1 | – | dChaFSrYLWS (DXFSRYLWS; D-residues; non-natural residues; cyclised or stapled) [AE107] | –
– | – | 0.00205 s⁻¹ | 14.6 | – | dChaFsrYL^2nAS ([dD][Cha]F[dS][dR]YL[2Nal]S) [AE109] | –
– | – | 0.00167 s⁻¹ | 11.9 | – | eChaFsYYLWS ([dE][Cha]F[dS]YYLWS) [AE115] | –
– | – | 0.00056 s⁻¹ | 4.0 | – | eChaFsyYLWS ([dE][Cha]F[dS][dY]YLWS) [AE100] | –
– | – | 0.00048 s⁻¹ | 3.4 | – | tChaFsrYLWS ([dT][Cha]F[dS][dR]YLWS) [AE108] | –
